Assay [1] has as its target T1, human BTLA expressed on cells (human, UniProt Q7Z6A9 31-289). Nature of the assay: cell-based or functional assay.
Assay [2] concerns the target T2, hBTLA (human BTLA protein coated on plates or coupled to a chip) (human, UniProt Q7Z6A9 31-157, limits assumed).
T2 sequence (looked up): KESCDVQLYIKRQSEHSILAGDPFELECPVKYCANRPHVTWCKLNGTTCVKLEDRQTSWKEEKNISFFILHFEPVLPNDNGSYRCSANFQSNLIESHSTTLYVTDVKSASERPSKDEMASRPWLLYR
Nature of the assay: ELISA, hBTLA coated at 0.5 µg/mL, anti-human IgG4-HRP detection. On the procedure: (§1) The binding specificity of the humanized antibodies to hBTLA was determined by conventional ELISA method. A 96-well microplate was coated with 0.5 μg/mL hBTLA and incubated at 37° C. for 60 minutes. The solution in wells was then discarded, and the wells were washed 3 times with washing buffer, and blocked for 60 minutes with PBS containing 2% BSA. After being washed 3 times with washing buffer, the wells were added with gradiently-diluted antibodies, incubated at 37° C. for 60 minutes, and washed 3 times with washing buffer before adding a HRP-labeled mouse anti-human IgG4 secondary antibody diluted at 1:10000. The mixture was incubated at 37° C. for 1 hour, washed three times with washing buffer, and added with 100 μL of TMB substrate solution for color development at room temperature for 30 minutes, then the reaction was stopped with 100 μL of 2M hydrochloric acid solution and the absorbance was read at 450 nm.
The humanized antibodies hu17, hu18, and hu19 can specifically bind to hBTLA.
Background: ELISA stands for enzyme-linked immunosorbent assay.

Assay [3] addresses T3, recombinant protein of human BTLA extracellular domain (hBTLA-ECD-FC) (human, UniProt Q7Z6A9 31-157, biotin-labeled in the FACS blocking assays (site not stated)).
T3 construct: extracellular domain; also called BTLA-Fc; biotin-labeled hBTLA; not shown: Fc of the self-constructed HX1-FC expression plasmid
T3 sequence (looked up): T2 sequence (looked up)
Description: FACS, blocking of biotin-labeled hBTLA binding to hHVEM-293F cells. How it is done: (§2) Then the cells were mixed with previously biotin-labeled hBTLA (1 μg/mL) protein, incubated at 4° C. for 15 minutes, followed by mixing with 50 μL of humanized antibody diluent (initial concentration: 5 μg/mL, 3-fold titration) at different concentrations, and incubating at room temperature for 30 minutes. After being washed with an FACS buffer twice, the cells were added with 100 μL of goat anti-human IgG-PE antibody, incubated for 30 minutes away from light, and assayed by FACS after two washes with an FACS buffer. The washed cells were resuspended in 4° C. buffer containing propidium iodide (PI) and 0.02% sodium azide that prevents receptor internalization and analyzed by flow cytometry. Viable cells were gated on the basis of PI positive cells being excluded from the FSC/SSC gate and their geometric mean fluorescence intensity was measured. The data were analyzed using a sigmoidal dose-response model within Prism™ software.
The […] antibodies hu17, hu18, and hu19 can effectively block the binding of human BTLA to HVEM on the cell surface.
Background: In flow cytometry, cells or beads pass a laser one at a time.

In assay [4] the target is T1, human BTLA expressed on cells. Description: FACS on 293F cells expressing hBTLA. How it is done: The humanized anti-BTLA antibodies were determined for their binding ability to hBTLA expressed on cells using cell-based flow cytometry (FACS). […] Then the cells were mixed with 50 μL of antibody diluent at different concentrations (initial concentration: 10 μg/mL, 3-fold titration), and incubated at room temperature for 30 minutes. After being washed with an FACS buffer twice, the cells were added with 100 μL of goat anti-human IgG-PE antibody, incubated for 30 minutes away from light, and assayed by FACS after two washes with an FACS buffer. The washed cells were resuspended in 4° C. buffer containing propidium iodide (PI) and 0.02% sodium azide that prevents receptor internalization and analyzed by flow cytometry. Viable cells were gated on the basis of PI positive cells being excluded from the FSC/SSC gate and their geometric mean fluorescence intensity was measured. The data were analyzed using a sigmoidal dose-response model within Prism™ software.
The humanized antibodies hu17, hu18, and hu19 can effectively bind to hBTLA on 293 cells.

Assay [5] has as its target T3, recombinant protein of human BTLA …. Nature of the assay: FACS, blocking of biotin-labeled hBTLA binding to hHVEM-293F cells. On the procedure:
as §2, with “chimeric” for “humanized”, “intensity (MFI)” for “intensity”, “PrismTM” for “Prism™”
The chimeric antibodies ch12, ch17, ch22 and ch27 can effectively block the binding of human BTLA to HVEM on the cell surface.
The source holds these as a separate data set.

In assay [6] the target is T2, hBTLA (human BTLA protein coated on …). Description: ELISA, hBTLA coated at 0.5 µg/mL, anti-human IgG4-HRP detection. On the procedure: as §1, with “ability” for “specificity”, “chimeric” for “humanized”, “assayed” for “determined”, “ELISA.” for “conventional ELISA method.”
The chimeric antibodies ch7, ch12, ch17, ch22 and ch27 can specifically bind to hBTLA.
This is another data set of the same source.

By EC50 is commonly meant the concentration at which the effect is half-maximal. A higher EC50 goes with weaker potency. For orientation: IC50 means the concentration that inhibits the measured activity by half.

Residue numbers refer to the chain shown, from its start. Like-named read-outs stand apart in the source and are kept apart here.

B1: humanized antibody hu19 (antibody, V domains shown)
VH: QVQLVQSGAEVKKPGASVKLSCKASGYNFKHTYAHWVRQAPGQGLEWIGRIDPANGNTKYDPKFQGRATMTADTASNTAYLELSSLRSEDTAVYYCVADHYGSSLLDYWGQGTLVTVSS
VL: DIVMTQTPLSLSVTPGQPASISCKSSQSLLDSDGKTYLNWFQQRPGQSPRRLMHLVSKLDSGVPDRFSGSGSGTDFTLKISRVEAEDVGVYYCWQGTYFPYTFGQGTKLEIK
notes: It was detected with an anti-human IgG4 secondary antibody
In the case of B1, the “EC50 (luciferase reporter, T cell activation)” value in assay [1] was found to be 0.29 µg/mL. For the same molecule, the EC50 came out at 0.0066 µg/mL in assay [2] and 0.0951 µg/mL in assay [4]. In assay [3], the IC50 was 0.162 µg/mL.

B2: chimeric antibody ch12 (antibody, human IgG4, V domains shown)
VH: EVQLQQSGADLVKPGASVKLSCTASGFNFKHTYAHWVKQRPEQGLEWIGRIDPANGNTKYDPKFQGKATMTADTASNAAFLQLSSLTSEDTAVYYCVADHYGSSLLDYWGQGTSLTVSS
VL: EVVMTQTPLTLSVTIGQSASISCKSSQSLLDSDGKTYLNWFLQRPGQSPKRLMHLVSKLDSGVPDRFTGSGSGTDFTLKISGVEAEDLGVYYCWQGTYFPYTFGGGTKLETK
notes: T0010 gives only CDR numbers (HCDR 13-15, LCDR 10-12)
As for B2, in assay [1], the “EC50 (luciferase reporter, T cell activation)” value is 0.139 µg/mL. Further, the concentration for half-maximal inhibition (IC50) in assay [3] was found to be 0.157 µg/mL; in assay [5] it was 0.0772 µg/mL. Further, the EC50 in assay [4] came out at 0.0881 µg/mL; in assay [6] it was 0.0094 µg/mL.

B3: chimeric antibody ch27 (antibody, human IgG4, V domains shown)
VH: EVHLQQSGTELMKPGASVKLSCTASGLNIRDTYMHWVKQRPEQGLEWIGRIDPANGNTKFDPKFQGKATLTSDTSSNTAYLHFSSLTSEDAAVYYCVSDHYGSSLLDYWGQGTSLTVSS
VL: B2 VL
notes: T0010 gives only CDR numbers (HCDR 28-30, LCDR 10-12)
For B3, the IC50 in assay [5] was 0.0695 µg/mL. In assay [6], this molecule displayed a half-maximal effective concentration (EC50) of 0.0052 µg/mL.

B4: chimeric antibody ch7 (antibody, human IgG4, V domains shown)
VH: EVQLQQSGAELVKPGASVKLSCTVSGFNIKDSYIHWVKQRPEQGLEWIGRIDPANGNTKYDPKFRGKATITADASSNTAALQVSSLTSEDTAVYFCVGDHYGSSLFDYWGHGTTLTVSS
VL: B2 VL
notes: T0010 gives only CDR numbers (HCDR 4-6, LCDR 10-12)
On to B4, for which, in assay [6], the EC50 amounted to 0.0066 µg/mL.

B5: chimeric antibody ch17 (antibody, human IgG4, V domains shown)
VH: EVQLQQSGADLVKPGASVKLSCTASGFNIKDTYVHWVKQRPEQGLEWIGRIDPANGHTKFDPKFQGKATITADTSSNTANLQISSLTSEDTAVYYCVSDYYGSSLLDYWGQGTTLTVSS
VL: B2 VL
notes: T0010 gives only CDR numbers (HCDR 19-21, LCDR 10-12)
Regarding B5, the IC50 in assay [5] turned out to be 0.0761 µg/mL. Moreover, the EC50 in assay [6] was found to be 0.0298 µg/mL.

B6: chimeric antibody ch22 (antibody, human IgG4, V domains shown)
VH: B5 VH with D10E, K13R, A24V, F60Y, F64L, K67T, N80Y, I83L, V97A, S98T
VL: B2 VL
notes: T0010 gives only CDR numbers (HCDR 25-27, LCDR 10-12)
As to B6, the 50% inhibitory concentration (IC50) in assay [5] came to 0.0757 µg/mL. In assay [6], this molecule yielded a 50% effective concentration (EC50) of 0.0373 µg/mL.

The record behind these values is patent US20210246209A1 (SHANGHAI JUNSHI BIOSCIENCES, published 2021).
